No end group written: not given here.
Key:
[1] = system: subjects with pancreatic cancer; assay: Phase I/II clinical study (NCT03364400): adverse events in subjects with pancreatic cancer; assay type: in vivo, human
Experimental: VT1021 was evaluated in a recently completed phase I/II open-label, multicenter, dose escalation (Part 1) and expansion (Part 2) clinical study in advanced, refractory, solid tumors including pancreatic cancer (NCT03364400). Seven subjects with pancreatic cancer were dosed in Part 1 and 32 were dosed in Part 2, 17 of which were considered evaluable as having completed ≥1 cycle of VT1021 treatment and tumor imaging during cycle 2. […] In the “expansion stage” of the VT1021-01 Study, subjects diagnosed with recurrent GBM, pancreatic cancer, ovarian cancer and other solid tumors were enrolled. They were treated with VT1021 at 11.8 mg/kg, twice weekly by IV infusion. The blood samples were collected from the clinical study at pre-treatment, 0, 2, 4, 6 hours post treatment to measure the levels of VT1021 (FIG. 2). The tumor biopsy samples prior to treatment and during treatment were collected from the clinical study to measure expression levels of biomarkers including CD36 and CD47, as well as cell surface markers for immune cell populations in the TME by immunohistochemistry assays (FIG. 3, FIG. 4, FIG. 5). The correlation between days on study and tumor shrinkage versus expression profile of CD36 and CD47 was analyzed (FIG. 4). The general expression profile of CD36 and CD47 has been assessed by IHC on Tumor Tissue Microarrays (TMAs), which contain biopsy samples collected from pancreatic cancer patients. TMAs were purchased from commercial sources, not related to the VT1021-01 clinical study. Common adverse effects (AEs) in escalation subjects with pancreatic cancer (Part 1) are shown in Table 1 The AEs shown occurred in 2 or more subjects, all cycles, maximum grade, regardless of toxicity). Of 39 pancreatic cancer subjects enrolled and dosed, 7 subjects were enrolled in the Part 1 escalation cohort. All 7 subjects reported at least one AE (regardless of causality). Four subjects had at least one AE, which was probably or possibly related to the study drug. […] Five subjects reported at least one severe adverse event (SAE) (regardless of causality). Two subjects had SAEs definitely or possibly related to study drug: infusion related reaction (grade 3), altered mental status (grade 2). Thirty-two subjects were enrolled in the Part 2 […] cohort. Thirty subjects reported at least one AE (regardless of causality). Eighteen subjects had at least one AE definitely, probably or possibly related to the study drug. Twenty subjects reported at least one SAE (regardless of causality). Two subjects had SAEs possibly related to study drug: thrombosis (grade 3), fever (grade 1)

[2] = system: TSP-1; assay: Immunohistochemistry and pathological examination of pre-treatment and on-study rGBM tumor biopsy; assay type: in vivo, human; settings: subject with rGBM who achieved CR
From the text: FIG. 10 is a chart showing that VT1021 induces TSP-1 in the circulation and the TME. (A) Bar graph of Tsp-1 protein levels measured by ELISA in circulating MDSCs collected prior to (baseline) and after (induction) treatment with VT1021 from patients who experienced complete or partial response, stable disease, or progressive disease; (B) H&E and immunohistochemical analysis of patient tumor tissue prior to onset (pre) or during treatment with VT1021; (C) Immunohistochemical analysis depicting representative images of high levels of CD36 and CD47.
The blood samples were collected from GBM subjects in the expansion phase, who were treated by VT1021 at 11.8 mg/kg, twice weekly, by IV infusion. VT1021 levels were measured and analyzed among male and female subjects (FIG. 7). […] CD36 and CD47 levels have been measured by immunohistochemistry assays in the pre-treatment tumor biopsy samples of the GBM subjects (FIG. 9, FIG. 10). Levels of Tsp-1 were measured by ELISA for circulating Tsp-1 levels in the collected blood samples, and by immunohistochemistry for the level of Tsp-1 accumulated in the tumor biopsy samples (FIG. 10). The infiltration of immune and inflammatory cells, specifically, MDSCs, T cells and macrophages, were determined by immunohistochemical analysis of the levels of cell surface markers in the tumor biopsy samples of subjects (FIG. 11).

[3] = Part 1 escalation cohort, 7 pancreatic cancer subjects
[4] = Part 1 escalation, pancreatic cancer, all cycles, maximum grade
[5] = Part 2 cohort, 32 pancreatic cancer subjects
[6] = Part 2 expansion, pancreatic cancer, all cycles, maximum grade

cyclic DWLPK (also: cyclic, mode of cyclisation not given here) [VT1021, 5-amino acid cyclic peptide from prosaposin; Tsp-1-inducing agent]
Urinary tract infection (AE), Grade 2 [1]: 2 subjects
subjects with SAEs definitely or possibly related to study drug ([1]; Part 1, 7 pancreatic cancer subjects, infusion related reaction (grade 3), altered mental status (grade 2)): Two
dose-limiting toxicity [1, 3]: no dose-limiting toxicity
subjects reporting at least one AE (regardless of causality) [1, 3]: 7 subjects
subjects reporting at least one severe adverse event (SAE) (regardless of causality) [1, 3]: Five
subjects with at least one AE probably or possibly related to the study drug [1, 3]: Four
Abdominal pain (AE), Grade 1 [1, 4]: 3 subjects
Abdominal pain (AE), Grade 3 [1, 4]: 1 subjects
Abdominal pain (AE), Total [1, 4]: 4 subjects
Constipation (AE), Grade 1 [1, 4]: 1 subjects
Constipation (AE), Grade 3 [1, 4]: 1 subjects
Constipation (AE), Total [1, 4]: 2 subjects
Fatigue (AE), Grade 1 [1, 4]: 2 subjects
Fatigue (AE), Total [1, 4]: 2 subjects
Infusion related reaction (AE), Grade 2 [1, 4]: 1 subjects
Infusion related reaction (AE), Grade 3 [1, 4]: 1 subjects
Infusion related reaction (AE), Total [1, 4]: 2 subjects
Nausea (AE), Grade 1 [1, 4]: 2 subjects
Nausea (AE), Total [1, 4]: 2 subjects
Thrombosis (AE), Grade 3 [1, 4]: 2 subjects
Thrombosis (AE), Total [1, 4]: 2 subjects
subjects with SAEs possibly related to study drug ([1]; Part 2, 32 pancreatic cancer subjects, thrombosis (grade 3), fever (grade 1)): Two
subjects reporting at least one AE (regardless of causality) [1, 5]: Thirty
subjects reporting at least one SAE (regardless of causality) [1, 5]: Twenty
subjects with at least one AE definitely, probably or possibly related to the study drug [1, 5]: Eighteen
Abdominal pain (AE), Grade 1 [1, 6]: 3 subjects
Abdominal pain (AE), Grade 2 [1, 6]: 9 subjects
Abdominal pain (AE), Grade 3 [1, 6]: 4 subjects
Abdominal pain (AE), Total [1, 6]: 16 subjects
Alanine aminotransferase increased (AE), Grade 1 [1, 6]: 4 subjects
Alanine aminotransferase increased (AE), Grade 3 [1, 6]: 2 subjects
Alanine aminotransferase increased (AE), Total [1, 6]: 6 subjects
Anaemia (AE), Grade 1 [1, 6]: 4 subjects
Anaemia (AE), Grade 2 [1, 6]: 2 subjects
Anaemia (AE), Grade 3 [1, 6]: 1 subjects
Anaemia (AE), Total [1, 6]: 7 subjects
Aspartate aminotransferase increased (AE), Grade 1 [1, 6]: 2 subjects
Aspartate aminotransferase increased (AE), Grade 2 [1, 6]: 2 subjects
Aspartate aminotransferase increased (AE), Grade 3 [1, 6]: 2 subjects
Aspartate aminotransferase increased (AE), Total [1, 6]: 6 subjects
Blood bilirubin increased (AE), Grade 2 [1, 6]: 3 subjects
Blood bilirubin increased (AE), Grade 3 [1, 6]: 4 subjects
Blood bilirubin increased (AE), Total [1, 6]: 7 subjects
Constipation (AE), Grade 1 [1, 6]: 4 subjects
Constipation (AE), Grade 2 [1, 6]: 4 subjects
Constipation (AE), Total [1, 6]: 8 subjects
Decreased appetite (AE), Grade 1 [1, 6]: 7 subjects
Decreased appetite (AE), Grade 2 [1, 6]: 2 subjects
Decreased appetite (AE), Grade 3 [1, 6]: 2 subjects
Decreased appetite (AE), Total [1, 6]: 11 subjects
Diarrhoea (AE), Grade 1 [1, 6]: 5 subjects
Diarrhoea (AE), Grade 2 [1, 6]: 3 subjects
Diarrhoea (AE), Total [1, 6]: 8 subjects
Fatigue (AE), Grade 1 [1, 6]: 3 subjects
Fatigue (AE), Grade 2 [1, 6]: 8 subjects
Fatigue (AE), Grade 3 [1, 6]: 3 subjects
Fatigue (AE), Total [1, 6]: 14 subjects
Insomnia (AE), Grade 1 [1, 6]: 6 subjects
Insomnia (AE), Total [1, 6]: 6 subjects
Nausea (AE), Grade 1 [1, 6]: 10 subjects
Nausea (AE), Grade 2 [1, 6]: 3 subjects
Nausea (AE), Grade 3 [1, 6]: 1 subjects
Nausea (AE), Total [1, 6]: 14 subjects
Pyrexia (AE), Grade 1 [1, 6]: 6 subjects
Pyrexia (AE), Total [1, 6]: 6 subjects
Urinary tract infection (AE), Total ([1]; human, in vivo): 2 subjects
major adverse events (AEs) ([1]; phase I/II study, solid tumors including pancreatic cancer): no major adverse events
TSP-1 in the on-study biopsy [2]: TSP-1 induction
tumor cells by pathological examination of the on-study biopsy [2]: No tumor cells were detected

— patent US20250041379A1, “METHODS AND COMPOSITIONS FOR THE TREATMENT OF CANCER” (Vigeo Therapeutics, Inc., priority 2021, published 2025)
